Test results published in patent US10941182 (Amgen, dated 2021).
Non-standard residues stand in square brackets, D forms with d. dBip = N[C@H](Cc1ccc(-c2ccccc2)cc1)C(=O)O; Oic = O=C(O)[C@@H]1C[C@@H]2CCCC[C@@H]2N1; Phe(4-Cl) = N[C@@H](Cc1ccc(Cl)cc1)C(=O)O; Phe(4-I) = N[C@@H](Cc1ccc(I)cc1)C(=O)O; NMehArg = CN[C@@H](CCCCNC(=N)N)C(=O)O; NMeR = CN[C@@H](CCCNC(=N)N)C(=O)O; hArg = N=C(N)NCCCC[C@H](N)C(=O)O; Cha = N[C@@H](CC1CCCCC1)C(=O)O; NMeL = CN[C@@H](CC(C)C)C(=O)O; Nle = CCCC[C@H](N)C(=O)O; Aib = CC(C)(N)C(=O)O

T1: human APJ receptor (human, UniProt P35414 1-380)
T1 sequence (looked up): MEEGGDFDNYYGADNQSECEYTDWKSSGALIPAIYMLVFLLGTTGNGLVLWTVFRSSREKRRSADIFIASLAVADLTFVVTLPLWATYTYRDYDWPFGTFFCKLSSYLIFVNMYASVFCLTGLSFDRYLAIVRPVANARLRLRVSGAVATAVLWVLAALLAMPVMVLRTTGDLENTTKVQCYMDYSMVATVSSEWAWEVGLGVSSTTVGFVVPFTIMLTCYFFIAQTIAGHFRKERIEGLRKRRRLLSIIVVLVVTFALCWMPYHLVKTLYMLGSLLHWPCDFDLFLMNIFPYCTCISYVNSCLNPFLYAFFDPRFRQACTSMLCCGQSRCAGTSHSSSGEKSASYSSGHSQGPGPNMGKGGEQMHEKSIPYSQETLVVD

T2: rat APJ receptor (rat, UniProt Q9JHG3 1-377)
T2 sequence (looked up): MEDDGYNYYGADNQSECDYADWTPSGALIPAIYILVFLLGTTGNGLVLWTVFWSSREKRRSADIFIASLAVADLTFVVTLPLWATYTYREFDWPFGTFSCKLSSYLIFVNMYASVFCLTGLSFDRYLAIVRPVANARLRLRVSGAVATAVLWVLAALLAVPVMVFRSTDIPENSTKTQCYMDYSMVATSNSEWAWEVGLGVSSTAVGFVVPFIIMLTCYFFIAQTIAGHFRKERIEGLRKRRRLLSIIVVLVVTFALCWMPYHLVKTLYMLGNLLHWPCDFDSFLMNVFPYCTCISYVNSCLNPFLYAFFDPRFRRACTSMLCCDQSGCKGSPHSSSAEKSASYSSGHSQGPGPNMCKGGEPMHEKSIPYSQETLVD


Experiments:
human APJ receptor = target: T1, human APJ receptor; assay: cell-based or functional assay
rat APJ receptor = target: T2, rat APJ receptor; assay: cell-based or functional assay

Binder	EC50 Human APJ Receptor (human APJ receptor) [nM]	EC50 Rat APJ Receptor (rat APJ receptor) [nM]
QRPRXSHKGPXXF ({Acetyl-NH}qRP[NMeArg][Cha]SHKG[aMePro][Nle][Aib][4-Cl-F]{COOH}) [SEQ ID NO: 93]	0.229	0.79
Ac-[hArg][dR]Q[hArg]P[dR]ESHKG[Oic][Phe(4-I)]P[dBip]-OH (SMILES CC(=O)N[C@@H](CCCCNC(=N)N)C(=O)N[C@H](CCCNC(=N)N)C(=O)N[C@@H](CCC(N)=O)C(=O)N[C@@H](CCCCNC(=N)N)C(=O)N1CCC[C@H]1C(=O)N[C@H](CCCNC(=N)N)C(=O)N[C@@H](CCC(=O)O)C(=O)N[C@@H](CO)C(=O)N[C@@H](Cc1c[nH]cn1)C(=O)N[C@@H](CCCCN)C(=O)NCC(=O)N1[C@H](C(=O)N[C@@H](Cc2ccc(I)cc2)C(=O)N2CCC[C@H]2C(=O)N[C@H](Cc2ccc(-c3ccccc3)cc2)C(=O)O)C[C@@H]2CCCC[C@@H]21) [SEQ ID NO: 80]	127	68.7
Ac-Q[hArg]P[NMeR][Cha]SHKG[Oic][Nle]P[Phe(4-Cl)]-OH (SMILES CCCC[C@H](NC(=O)[C@@H]1C[C@@H]2CCCC[C@@H]2N1C(=O)CNC(=O)[C@H](CCCCN)NC(=O)[C@H](Cc1c[nH]cn1)NC(=O)[C@H](CO)NC(=O)[C@H](CC1CCCCC1)NC(=O)[C@H](CCCNC(=N)N)N(C)C(=O)[C@@H]1CCCN1C(=O)[C@H](CCCCNC(=N)N)NC(=O)[C@H](CCC(N)=O)NC(C)=O)C(=O)N1CCC[C@H]1C(=O)N[C@@H](Cc1ccc(Cl)cc1)C(=O)O) [SEQ ID NO: 61]	0.159	0.189
Ac-E[dR]Q[hArg]P[dR][NMeL]SHKG[Oic][Phe(4-I)]P[dBip]-OH [SEQ ID NO: 75]	1.56	1.08
Ac-[hArg][dR]Q[hArg]P[dR][NMeL]SHKE[Oic][Phe(4-I)]P[dBip]-OH (SMILES CC(=O)N[C@@H](CCCCNC(=N)N)C(=O)N[C@H](CCCNC(=N)N)C(=O)N[C@@H](CCC(N)=O)C(=O)N[C@@H](CCCCNC(=N)N)C(=O)N1CCC[C@H]1C(=O)N[C@H](CCCNC(=N)N)C(=O)N(C)[C@@H](CC(C)C)C(=O)N[C@@H](CO)C(=O)N[C@@H](Cc1c[nH]cn1)C(=O)N[C@@H](CCCCN)C(=O)N[C@@H](CCC(=O)O)C(=O)N1[C@H](C(=O)N[C@@H](Cc2ccc(I)cc2)C(=O)N2CCC[C@H]2C(=O)N[C@H](Cc2ccc(-c3ccccc3)cc2)C(=O)O)C[C@@H]2CCCC[C@@H]21) [SEQ ID NO: 84]	18.1	89.3
Ac-[hArg][dR]Q[hArg]P[dR][NMeL]SHKG[Oic][Phe(4-I)]E[dBip]-OH (SMILES CC(=O)N[C@@H](CCCCNC(=N)N)C(=O)N[C@H](CCCNC(=N)N)C(=O)N[C@@H](CCC(N)=O)C(=O)N[C@@H](CCCCNC(=N)N)C(=O)N1CCC[C@H]1C(=O)N[C@H](CCCNC(=N)N)C(=O)N(C)[C@@H](CC(C)C)C(=O)N[C@@H](CO)C(=O)N[C@@H](Cc1c[nH]cn1)C(=O)N[C@@H](CCCCN)C(=O)NCC(=O)N1[C@H](C(=O)N[C@@H](Cc2ccc(I)cc2)C(=O)N[C@@H](CCC(=O)O)C(=O)N[C@H](Cc2ccc(-c3ccccc3)cc2)C(=O)O)C[C@@H]2CCCC[C@@H]21) [SEQ ID NO: 87]	52.7	58.9
RLIEDICLPRWGCLWXXQRPRLSHKGPXPF ({Acetyl-NH}RLIEDICLPRWGCLW[Aeea][Aeea]QRP[NMeArg]LSHKGP[Nle]P[4-Cl-F]{COOH}) [SEQ ID NO: 91]	0.0357	0.124
Ac-[hArg][dR]QEP[dR][NMeL]SHKG[Oic][Phe(4-I)]P[dBip]-OH [SEQ ID NO: 77]	4.92	2.84
Ac-[hArg][dR]Q[hArg]P[dR][NMeL]SHKG[Oic]EP[dBip]-OH (SMILES CC(=O)N[C@@H](CCCCNC(=N)N)C(=O)N[C@H](CCCNC(=N)N)C(=O)N[C@@H](CCC(N)=O)C(=O)N[C@@H](CCCCNC(=N)N)C(=O)N1CCC[C@H]1C(=O)N[C@H](CCCNC(=N)N)C(=O)N(C)[C@@H](CC(C)C)C(=O)N[C@@H](CO)C(=O)N[C@@H](Cc1c[nH]cn1)C(=O)N[C@@H](CCCCN)C(=O)NCC(=O)N1[C@H](C(=O)N[C@@H](CCC(=O)O)C(=O)N2CCC[C@H]2C(=O)N[C@H](Cc2ccc(-c3ccccc3)cc2)C(=O)O)C[C@@H]2CCCC[C@@H]21) [SEQ ID NO: 86]	> 4170	> 4170
Ac-[hArg][dR]Q[hArg]P[dR][NMeL]SHKGE[Phe(4-I)]P[dBip]-OH (SMILES CC(=O)N[C@@H](CCCCNC(=N)N)C(=O)N[C@H](CCCNC(=N)N)C(=O)N[C@@H](CCC(N)=O)C(=O)N[C@@H](CCCCNC(=N)N)C(=O)N1CCC[C@H]1C(=O)N[C@H](CCCNC(=N)N)C(=O)N(C)[C@@H](CC(C)C)C(=O)N[C@@H](CO)C(=O)N[C@@H](Cc1c[nH]cn1)C(=O)N[C@@H](CCCCN)C(=O)NCC(=O)N[C@@H](CCC(=O)O)C(=O)N[C@@H](Cc1ccc(I)cc1)C(=O)N1CCC[C@H]1C(=O)N[C@H](Cc1ccc(-c2ccccc2)cc1)C(=O)O) [SEQ ID NO: 85]	> 4170	> 4170
Ac-Q[hArg][NMehArg]LSHKGP[Nle]P[Phe(4-Cl)]-OH (SMILES CCCC[C@H](NC(=O)[C@@H]1CCCN1C(=O)CNC(=O)[C@H](CCCCN)NC(=O)[C@H](Cc1c[nH]cn1)NC(=O)[C@H](CO)NC(=O)[C@H](CC(C)C)NC(=O)[C@H](CCCCNC(=N)N)N(C)C(=O)[C@H](CCCCNC(=N)N)NC(=O)[C@H](CCC(N)=O)NC(C)=O)C(=O)N1CCC[C@H]1C(=O)N[C@@H](Cc1ccc(Cl)cc1)C(=O)O) [SEQ ID NO: 74]	0.48	17.3
RLIEDICLPRWGCLWEDDXXQRPRLSHKGPXPF ({Acetyl-NH}RLIEDICLPRWGCLWEDD[Aeea][Aeea]QRP[NMeArg]LSHKGP[Nle]P[4-Cl-F]{COOH}) [SEQ ID NO: 90]	0.14	0.633
Ac-QR[NMeR]LSHKGP[Nle]P[Phe(4-Cl)]-OH (SMILES CCCC[C@H](NC(=O)[C@@H]1CCCN1C(=O)CNC(=O)[C@H](CCCCN)NC(=O)[C@H](Cc1c[nH]cn1)NC(=O)[C@H](CO)NC(=O)[C@H](CC(C)C)NC(=O)[C@H](CCCNC(=N)N)N(C)C(=O)[C@H](CCCNC(=N)N)NC(=O)[C@H](CCC(N)=O)NC(C)=O)C(=O)N1CCC[C@H]1C(=O)N[C@@H](Cc1ccc(Cl)cc1)C(=O)O) [SEQ ID NO: 72]	1.36	40.6
Ac-QRP[NMeR][Cha]SHKG[Oic][Nle][Aib][Phe(4-Cl)]-OH [SEQ ID NO: 92]	0.679	3.23
